The supplement of paper PMC9112550, “Optimization of the antimicrobial peptide Bac7 by deep mutational scanning” (BMC Biology, 2022)

Tested on: Escherichia coli TOP10
Experiment: shrunken log2 fold change of peptide-encoding DNA abundance (4.5 h post-induction vs induction); higher = less antimicrobial activity (less host growth inhibition)
Conditions: time post-induction: 4.5 h; library: site-saturation at positions 5, 18, 19, 20
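Note: peptides expressed intracellularly from a pBAD plasmid library in pooled LB shake-flask culture, induced with 0.3% L-arabinose, DNA abundance read by NGS, three biological replicates, DESeq2 with apeglm shrinkage.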

RRIRLRPPRLPRPRPRPGEMPRP
shrunken log2 fold change: 0.0594

RRIRHRPPRLPRPRPRPGSLPRP
shrunken log2 fold change: 0.134

RRIRQRPPRLPRPRPRPYDVPRP
shrunken log2 fold change: -0.00663

RRIRDRPPRLPRPRPRPMAEPRP
shrunken log2 fold change: 0.902

RRIRLRPPRLPRPRPRPEQEPRP
shrunken log2 fold change: -0.104

RRIRHRPPRLPRPRPRPHIIPRP
shrunken log2 fold change: -0.192

RRIRVRPPRLPRPRPRPIINPRP
shrunken log2 fold change: -0.644

RRIRYRPPRLPRPRPRPSKLPRP
shrunken log2 fold change: -0.917

RRIRNRPPRLPRPRPRPCTSPRP
shrunken log2 fold change: -0.0712

RRIRWRPPRLPRPRPRPMNNPRP
shrunken log2 fold change: -0.606

RRIRIRPPRLPRPRPRPFHKPRP
shrunken log2 fold change: -0.196

RRIRTRPPRLPRPRPRPYANPRP
shrunken log2 fold change: -0.00264

RRIRERPPRLPRPRPRPWIMPRP
shrunken log2 fold change: -0.277

RRIRYRPPRLPRPRPRPYRTPRP
shrunken log2 fold change: -0.588

RRIRQRPPRLPRPRPRPMWSPRP
shrunken log2 fold change: 0.0215

RRIRTRPPRLPRPRPRPWWVPRP
shrunken log2 fold change: -0.0227

RRIRQRPPRLPRPRPRPAEQPRP
shrunken log2 fold change: -0.000243

RRIRWRPPRLPRPRPRPCKHPRP
shrunken log2 fold change: -0.245

RRIRIRPPRLPRPRPRPWAIPRP
shrunken log2 fold change: -0.0196

RRIRPRPPRLPRPRPRPMINPRP
shrunken log2 fold change: -0.179

RRIRPRPPRLPRPRPRPSKGPRP
shrunken log2 fold change: 0.0318

RRIRCRPPRLPRPRPRPIRCPRP
shrunken log2 fold change: -0.00208

RRIRLRPPRLPRPRPRPKQLPRP
shrunken log2 fold change: -0.0685

RRIRKRPPRLPRPRPRPAVCPRP
shrunken log2 fold change: 0.356

RRIRPRPPRLPRPRPRPYIIPRP
shrunken log2 fold change: -0.455

RRIRARPPRLPRPRPRPILNPRP
shrunken log2 fold change: -0.273

RRIRMRPPRLPRPRPRPNKQPRP
shrunken log2 fold change: 0.0442

RRIRKRPPRLPRPRPRPREDPRP
shrunken log2 fold change: 0.346

RRIRQRPPRLPRPRPRPITVPRP
shrunken log2 fold change: -0.143

RRIRARPPRLPRPRPRPMNHPRP
shrunken log2 fold change: -0.151

RRIRYRPPRLPRPRPRPSDRPRP
shrunken log2 fold change: -0.307

RRIRFRPPRLPRPRPRPMMGPRP
shrunken log2 fold change: -0.0671

RRIRQRPPRLPRPRPRPVRSPRP
shrunken log2 fold change: 0.32

RRIRFRPPRLPRPRPRPNWPPRP
shrunken log2 fold change: 0.333

RRIRSRPPRLPRPRPRPCWLPRP
shrunken log2 fold change: 0.102

RRIRQRPPRLPRPRPRPENDPRP
shrunken log2 fold change: -0.0134

RRIRCRPPRLPRPRPRPGGEPRP
shrunken log2 fold change: 0.538

RRIRLRPPRLPRPRPRPSRCPRP
shrunken log2 fold change: 0.05

RRIRGRPPRLPRPRPRPDWWPRP
shrunken log2 fold change: 0.937

RRIRGRPPRLPRPRPRPRSQPRP
shrunken log2 fold change: 1.13

RRIRQRPPRLPRPRPRPRRGPRP
shrunken log2 fold change: 0.502

RRIRHRPPRLPRPRPRPTMPPRP
shrunken log2 fold change: -0.00312

RRIRPRPPRLPRPRPRPKQNPRP
shrunken log2 fold change: 0.0525

RRIRQRPPRLPRPRPRPGPIPRP
shrunken log2 fold change: 0.253

RRIRCRPPRLPRPRPRPCNDPRP
shrunken log2 fold change: -0.173

RRIRVRPPRLPRPRPRPIFHPRP
shrunken log2 fold change: -0.0258

RRIRIRPPRLPRPRPRPHVFPRP
shrunken log2 fold change: 0.064

RRIRPRPPRLPRPRPRPTAKPRP
shrunken log2 fold change: 0.152

RRIRLRPPRLPRPRPRPQSYPRP
shrunken log2 fold change: -0.242

RRIRERPPRLPRPRPRPYKQPRP
shrunken log2 fold change: -0.049

RRIRDRPPRLPRPRPRPRQFPRP
shrunken log2 fold change: 0.0037

RRIRCRPPRLPRPRPRPSQMPRP
shrunken log2 fold change: -0.278

RRIRCRPPRLPRPRPRPMDIPRP
shrunken log2 fold change: 0.00412

RRIRKRPPRLPRPRPRPPHIPRP
shrunken log2 fold change: 0.41

RRIRGRPPRLPRPRPRPVKVPRP
shrunken log2 fold change: 0.425

RRIRIRPPRLPRPRPRPHRDPRP
shrunken log2 fold change: -0.236

RRIRGRPPRLPRPRPRPIACPRP
shrunken log2 fold change: 0.526

RRIRQRPPRLPRPRPRPQIDPRP
shrunken log2 fold change: -0.0357

RRIRRRPPRLPRPRPRPCYSPRP
shrunken log2 fold change: -0.00167

RRIRKRPPRLPRPRPRPGYQPRP
shrunken log2 fold change: 0.0954
